Source: patent US20210388112A1

Molecular target: T1, peptide containing GA-pyridine (Biotin-Gly-Ala-Gly-(GA-pyridine)-Gly-Ala-CONH2)
T1 chain: GAGXGA
Assay: SPR (Biacore T200), peptide immobilised on sensor chip SA, 25 C

Kd: 16.1 nM
B1: cyclic Y9-scFv cyclized by sortase (scFv)
scFv: GGGSHMAQVKLQQSGPSLVKPSQTLSLTCSVTGDSITSGYWNWIRKFPGNKFEYLGYISYSGRTYYNPSLKSRISITRDTSKNQYYLQLNSVTTEDTATYYCSRPYYRYDYAIDYWGQGTTVTVSSGGGGSGGGGSGGGGSDIELTQSPAIMSASLGEQVTMTCTASSSVSSSYLHWYQQKPGSSPKLWIYSTSNLASGVPARFSSSGSGTSYSLTISRMEAEDAATYYCQQSWKAPYTFGGGTKLEIKRAAAGTHHHHHHLPET
modifications: not checked
